{"source": "patent US6602687B1", "about": "“DNA encoding human ciliary neurotrophic factor and method for producing the protein encoded thereby” (Regeneron Pharmaceuticals, Inc., priority 1989, dated 2003)", "molecules": {"B1": {"name": "CNTF: ciliary neurotrophic factor; recombinant rat CNTF in Sections 10, 15, 17, purified rat sciatic nerve CNTF in Section 11; see endpoint conditions (protein, UniProt P20294 1-200, looked up)", "Ciliary neurotrophic factor": "MAFAEQTPLTLHRRDLCSRSIWLARKIRSDLTALMESYVKHQGLNKNINLDSVDGVPVASTDRWSEMTEAERLQENLQAYRTFQGMLTKLLEDQRVHFTPTEGDFHQAIHTLMLQVSAFAYQLEELMVLLEQKIPENEADGMPATVGDGGLFEKKLWGLKVLQELSQWTVRSIHDLRVISSHQMGISALESHYGAKDKQM"}}, "key": {"[1]": {"test_system": "E18-19 rat hippocampal neurons", "assay": "GAD enzyme activity in hippocampal cultures", "assay_type": "cell-based", "conditions": "recombinant rat CNTF 0.1 ng/ml; 8 days", "method": "Hippocampi were dissected from E18-19 rat embryos of Sprague-Dawley rats, and collected in F10 medium. The tissues were minced, rinsed twice with F10 medium (Gibco) and trypsinized with 0.25% trypsin (Gibco) for 20 minutes at 37° C. Trypsin was inactivated by the addition of a serum-containing medium composed of minimal essential medium (MEM) supplemented with fetal calf serum (FCS, 10%), glutamine (2 mM), penicillin (25 U/ml) and streptomycin (25 ug/ml). Dissociated cells obtained by gentle trituration were collected and centrifuged at low speed (500 rpm) for 30 seconds. The centrifugation was repeated twice, and the cell pellets were then resuspended in serum-containing medium. The cells were then plated onto 6 mm wells or 35 mm dishes that were coated with polyornithine (10 ug/ml) and laminin (10 ug/ml). In most of the experiments, the cells were plated at a low density of approximately 71,000 cells/cm^2. […]\nGAD enzyme activity was determined according to the method of Kimura and Kuriyama (1975, Jpn J. Pharm. 25:189-195) by measuring the release of ^14CO2 from L-[1-^14C] glutamic acid. […] The incubation was then continued for another 60 minutes. ^14CO2 released was trapped in Hyamine base solution, and was counted. […]"}, "[2]": {"test_system": "E18-19 rat hippocampal neurons", "assay": "Counts of NSE-, GAD-, calbindin- and acetylcholinesterase-positive cells in hippocampal cultures", "assay_type": "cell-based", "method": "Hippocampi were dissected from E18-19 rat embryos of Sprague-Dawley rats, and collected in F10 medium. The tissues were minced, rinsed twice with F10 medium (Gibco) and trypsinized with 0.25% trypsin (Gibco) for 20 minutes at 37° C. Trypsin was inactivated by the addition of a serum-containing medium composed of minimal essential medium (MEM) supplemented with fetal calf serum (FCS, 10%), glutamine (2 mM), penicillin (25 U/ml) and streptomycin (25 ug/ml). Dissociated cells obtained by gentle trituration were collected and centrifuged at low speed (500 rpm) for 30 seconds. The centrifugation was repeated twice, and the cell pellets were then resuspended in serum-containing medium. The cells were then plated onto 6 mm wells or 35 mm dishes that were coated with polyornithine (10 ug/ml) and laminin (10 ug/ml). In most of the experiments, the cells were plated at a low density of approximately 71,000 cells/cm^2. Five to six hours following the plating of cells, medium was changed to a serum-free medium containing 1% N3 and penicillin-streptomycin (25 units/ml and 25 ug/ml, respectively), at which time CNTF was added. Medium was changed every three to four days, with re-addition of the factor.\nCells were fixed with 4% paraformaldehyde for 30 minutes at room temperature, washed with PBS. For GAD staining, cells were permeabilized by sequential rinsing with 50%, 70% and 50% ethanol. The cultures were blocked by sequential rinsing with PBS containing 5% normal rabbit serum for one hour, and incubated with sheep anti-GAD antibody 1440 at a 1:6000 dilution) overnight at 4° C. Following three rinses with PBS, cells were then incubated with biotinylated rabbit anti-sheep antibody at a 1:400 dilution for at least 90 minutes at room temperature. For GABA staining, cells were permeabiized with Triton X-100 (0.25%) in Tris-HCl (0.1M, pH 7.3), and blocked with 10% normal goat serum for 90 minutes, prior to incubation with rabbit anti-GABA antibody (1:5000) ovenight at 4° C. Following three rinses with PBS, cells were then incubated with biotinylated goat anti-rabbit antibody at a 1:200 dilution for at least 90 minutes at room temperature. GAG- or GABA imminoreactive cells were visualized by using the Vectastain ABC kit (Vector Labs).\nFollowing fixing with 4% paraformaldehyde, cells were blocked with 10% normal goat serum (NGS) in PBS containing 0.1% Triton X-100. The cells were then incubated with the primary antibody (rabbit anti-NSE, 1:5000) overnight at 4° C. The cells were then incubated with the secondary antibody (goat anti-rabit, 1:200 dilution) for at least 90 minutes at room temperature. NSE-immunopositive cells were visualized using the Vectastain ABC kit (Vector Labs).\nCells were rinsed twice with PBS, and fixed with 4% paraformaldehyde for 30 minutes at room temperature. […]"}, "[3]": {"conditions": "recombinant rat CNTF 10 ng/ml, 8 days"}}, "data": [{"molecule": "B1", "values": [{"measurement": "maximal increase in GAD enzyme activity", "setting": "[1]", "value": 3.8, "unit": "fold"}, {"measurement": "increase in number of GAD-positive neurons", "setting": "[2]; [3]", "value": 2.3, "unit": "fold"}, {"measurement": "increase in number of NSE-positive neurons", "setting": "[2]; [3]", "value": 2.2, "unit": "fold"}, {"measurement": "increase in calbindin-immunopositive cells", "setting": "[2]; recombinant rat CNTF 10 ng/ml, low-density cultures", "value": 3, "unit": "fold"}, {"measurement": "increase in number of acetylcholinesterase positive cells versus controls", "setting": "[2]; recombinant rat CNTF, after 8 days in culture", "value": "approximately 17 fold"}]}]}
